# Measured values published in patent US20230020729A1 (Memorial Sloan Kettering, published 2023).
# Residue numbers refer to the chain shown, from its start.
# T1: human Fc Receptor-Like 5 (FcRL5), full length, expressed on cells (human, UniProt Q96RD9 16-977)
# T1 construct: also called CD307e; IRTA2
# T1 sequence: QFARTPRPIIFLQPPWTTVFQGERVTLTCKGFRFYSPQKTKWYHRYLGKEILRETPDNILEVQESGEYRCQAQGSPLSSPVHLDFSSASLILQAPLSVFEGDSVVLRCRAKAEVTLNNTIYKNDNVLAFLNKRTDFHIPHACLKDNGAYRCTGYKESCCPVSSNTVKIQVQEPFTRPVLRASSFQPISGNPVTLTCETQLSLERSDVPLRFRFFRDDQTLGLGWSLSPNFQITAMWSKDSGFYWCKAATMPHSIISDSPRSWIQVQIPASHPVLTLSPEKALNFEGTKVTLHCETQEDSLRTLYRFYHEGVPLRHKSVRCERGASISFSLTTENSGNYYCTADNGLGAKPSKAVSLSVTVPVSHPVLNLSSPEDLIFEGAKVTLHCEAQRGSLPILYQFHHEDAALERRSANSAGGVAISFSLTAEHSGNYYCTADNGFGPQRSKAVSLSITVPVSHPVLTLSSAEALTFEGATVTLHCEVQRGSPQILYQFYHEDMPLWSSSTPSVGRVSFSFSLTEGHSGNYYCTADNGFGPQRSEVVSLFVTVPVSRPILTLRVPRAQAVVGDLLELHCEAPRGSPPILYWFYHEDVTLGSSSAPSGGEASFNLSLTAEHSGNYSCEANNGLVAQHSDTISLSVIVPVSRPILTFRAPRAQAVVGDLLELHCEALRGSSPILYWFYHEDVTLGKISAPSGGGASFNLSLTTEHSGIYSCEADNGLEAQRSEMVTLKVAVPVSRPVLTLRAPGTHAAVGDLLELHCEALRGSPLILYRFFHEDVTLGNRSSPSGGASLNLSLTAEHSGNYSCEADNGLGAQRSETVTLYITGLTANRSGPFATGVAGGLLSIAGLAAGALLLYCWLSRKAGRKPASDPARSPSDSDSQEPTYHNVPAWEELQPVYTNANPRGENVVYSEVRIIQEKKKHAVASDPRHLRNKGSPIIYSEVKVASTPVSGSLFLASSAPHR
# B1: ET200-020 scFv (scFv)
# scFv: QSVVTQPPSVSAAPGQKVTISCSGSTSNIGNNDVSWYQQLPGTAPKLLIYDNNKRPSGIPDRFSGSKSGTSATLGITGLQTGDEADYYCGTWDSSVSASWVFGRGTKLTVLGSRGGGGSGGGGSGGGGSLEMAQVQLVQSGAEVKKPGASVKVSCKASGYTFTSYGISWVRQAPGQGLEWMGWISAYNGNTNYPQKLQGRVTMTTDPSTSTAYMELRSLRSDDTAVYYCARSMTSFDYWGQGTLVTVSS
# notes: VL-linker-VH; screened as scFv phage clone
# B2: ET200-018 scFv (scFv)
# scFv: QAVLTQPPSTSGTPGQRVTISCSGSSSNIGRNGVNWYQQLPGAAPKVLIYNDNQRPSGVPDRVSGSQSGSSGTLAIDGLRSEDEADYYCAAWDDSLHGVVFGGGTKLTVLGSRGGGGSGGGGSGGGGSLEMAQVQLVQSGAEVKKPGASVKVSCKVSGYTLNELSMHWVRQAPGKGLEWMGGFDPEDGETIYAQKFQGRVTMTEDTSTDTAYMELSSLRSEDTAVYYCARGGYGDSWGQGTLVTVSS
# notes: as for B1
# B3: ET200-023 scFv (scFv)
# scFv: LPVLTQPPSVSVAPGKTARITCGGNNIGSKSVHWYQQKPGQAPVLVVYADSDRPSGIPERFSGSNSGNTATLTISRVEAGDEADYYCQVWDSSSYHNYVFGTGTKVTVLGSRGGGGSGGGGSGGGGSLEMAEVQLVQSGAEVKKPGASVKVSCKASGYTFTSYGISWVRQAPGQGLEWMGWISAYNGNTNYAQKLQGRVTMTTDTSTSTAYMELSSLRSEDTAMYYCARYWGFGVSDRWGQGTLVTVSS
# notes: as for B1
# B4: ET200-015 scFv (scFv)
# scFv: QSVVTQPPSVSVAPGKTARITCGGNNIGSKSVHWYQQKPGQAPVLVIYYDSDRPSGIPERFSGSNSGNTATLTISRVEAGDEADYYCQVWDSSSDVVFGGGTKLTVLGSRGGGGSGGGGSGGGGSLEMAEVQLVQSGAEVKKPGASVKVSCKASGYTFTSYGISWVRQAPGQGLEWMGWISAYNGNTNYAQKLQGRVTMTTDTSTSTAYMELRSLRSDDTAVYYCARWGGFGAVDHWGQGTLVTVSS
# notes: as for B1
# B5: ET200-039 scFv (scFv)
# scFv: NFMLTQPHSVSESPGKTVTISCTRSSGSIASNYVQWYQQRPGSSPTTVIYEDNQRPSGVPDRFSGSIDSSSNSASLTISGLKTEDEADYYCQSYDSSNWVFGGGTKLTVLGSRGGGGSGGGGSGGGGSLEMAEVQLVQSGAEVKKPGSSVKVSCKASGGTFSSYAISWVRQAPGQGLEWMGGIIPIFGTANYAQKFQGRVTITADESTSTAYMELSSLRSEDTAVYYCARSNYYYNDYWGQGTLVTVSS
# notes: VL-linker-VH; screened as scFv phage clone; also called ET200-39
# B6: ET200-035 scFv (scFv)
# scFv: B5 scFv with S44A, S97T, E133Q, S231Y, Y235F
# notes: as for B1
# B7: ET200-026 scFv (scFv)
# scFv: B5 scFv with R24G, S44A, S231N, Y233H
# notes: as for B1
# B8: ET200-013 scFv (scFv)
# scFv: QSVVTQPPSVSGAPGQRVTISCTGSTSNIGAGYDVHWYQQLPGTAPKLLIYTNNFRPSGVPDRFSASKSGTSASLAITGLQAEDEADYYCGTWDSSLSAVVFGGGTKLTVLGSRGGGGSGGGGSGGGGSLEMAEVQLVESGTEVKKPGASVKVSCKASGYMFTSYGLNWVRQAPGQGLEWMGWISANNGKTNYAKKFQDRVTMTRDTSTSTGYMELRSLRSDDTAVYYCARHIGGSYFDRWGQGTLVTVSS
# notes: as for B1
# B9: ET200-016 scFv (scFv)
# scFv: SSELTQDPAVSVALGQTVKITCQGDSLTDYHATWYQQKPGQAPVAVIYATNNRPTGIPDRFSGSSSGNTASLTITGAQAEDEADYYCNSRDSGTDEVLFGGGTKLTVLGSRGGGGSGGGGSGGGGSLEMAEVQLVETGGGLVKPGGSLRLSCAASGFTFSSYSMNWVRQAPGKGLEWVSSISSSSSYIYYADSVKGRFTISRDNAKNSLYLQMNSLRAEDTAVYYCARGQGYDYWGQGTLVTVSS
# notes: as for B1
# B10: ET200-014 scFv (scFv)
# scFv: SYVLTQPPSVSVAPGKTARITCGGNNIGSKSVHWYQQKPGQAPVLVIYYDSDRPSGIPERFSGSNSGNTATLTISRVEAGDEADYYCQVWDSSSDHYVFGTGTKVTVLGSRGGGGSGGGGSGGGGSLEMAEVQLVETGGGLVQPGGSLRLSCAASGFTFSSYAMSWVRQAPGKGLEWVSAISGSDGSTYYADSVKGRFTISRDNSKNTLYLQMNSLRDEDTAVYYCARSHEANLVGDWWGQGTLVTVSS
# notes: as for B1
# B11: ET200-017 scFv (scFv)
# scFv: SYVLTQPPSVSVAPGKTARITCGGNNIGSKSVHWYQQKPGQAPVLVVYDDSDRPSGIPERFSGSNSGNTATLSISRVEAGDEADYYCQVWDSSSDHTVFGTGTKVTVLGSRGGGGSGGGGSGGGGSLEMAQVQLQQWGAGLLKPSETLSLTCAVYGGSFSGYYWSWIRQPPGKGLEWIGEINHSGSTNYNPSLKSRVTISVDTSKNQFSLKLSSVTAADTAVYYCARYYPGMDMWGQGTLVTVSS
# notes: as for B1
# B12: ET200-021 scFv (scFv)
# scFv: QSVLTQPPSVSAAPGQKVTISCSGSNSNIGNNYVSWYQQLPGTAPKLLIYDNNKRPSGIPDRFSGSRSGTSATLGITGLQTGDEADYYCGTWNTTVTPGYVFGTGTKVTVLGSRGGGGSGGGGSGGGGSLEMAEVQLVQSGAEVKKPGASVKVSCKASGYTFTSYGISWVRQAPGQGLEWMGWISAYNGNTNYAQKLQGRVTMTTDTSTSTAYMELRSLRSDDTAMYYCARSVYDLDTWGQGTLVTVSS
# notes: as for B1
# B13: ET200-002 scFv (scFv)
# scFv: NFMLTQPHSVSESPGKTVTISCTRSSGSIASNYVQWYQQRPGSAPTTVIYEDNQRPSGVPDRFSGSIDSSSNSASLTISGLKTEDEADYYCQSYDSSNSVVFGGGTKLTVLGSRGGGGSGGGGSGGGGSLEMAQVQLVQSGTEVKKPGASVRVACKASGYPFNKYDINWVRQAPGQGLEWMGGIIPIFRTTNYAQKFQGRVTITADESTSTAYMELSSLRSEDTAVYYCAREWFYWDIWGQGTLVTVSS
# notes: as for B1
# B14: ET200-012 scFv (scFv)
# scFv: QSVLTQPPSVSAAAGQKVTISCSGSDSNIGNNYVSWYQHLPGTAPKLLIYDVKNRPSGIPDRFSGSKSGSSATLGIAGLQPGDEADYYCGTWDSRLDAYVFGTGTKVTVLGSRGGGGSGGGGSGGGGSLEMAQMQLVQSGAEVKKPGASVKVSCKTSGFPFNIFGITWVRQAPGQGLEWMGWISGYNGNTDYPQKFQGRVTMSTDTSTSTAYMELRNLKSDDTAVYYCARGAYGGMDTWGQGTLVTVSS
# notes: as for B1
# B15: ET200-022 scFv (scFv)
# scFv: QSVVTQPPSVSAAPGQKVTISCSGSSSNIGNNYVSWYQQLPGTAPKLLIYDNNKRPSGIPDRFSGSKSGTSATLGITGLQTGDEADYYCGTWDSSLGAPYVFGTGTKVTVLGSRGGGGSGGGGSGGGGSLEMAEVQLVQSWGGSEQPGRSLRLSCAASGFTFDDYAMHWVRQAPGKGLEWVSGISWNSGSIGYADSVKGRFTISRDNAKNSLYLQMNSLRAEDTAMYYCARYRQVGSAYDSWGQGTLVTVSS
# notes: as for B1
# B16: ET200-019 scFv (scFv)
# scFv: NFMLTQPHSVSESPGKTVTISCTRSSGSIASNYVQWYQQRPGSAPTTVIYEDNQRPSGVPDRFSGSIDSSSNSASLTISGLKTEDEADYYCQSYDSSNSWVFGGGTKLTVLGSRGGGGSGGGGSGGGGSLEMAQVQLVQSGAEVKRPGSSVKVSCTASGGTFSSDAISWVRQAPGQGLEWMGGIIPMFGTANYAQKFQGRVTITADESTSTAYMELSSLRSEDTAVYYCAREGYYYPSAYLGSVLNDISSVYDEWGQGTLVTVSS
# notes: as for B1
# Biological target: T1, human Fc Receptor-Like 5 (FcRL5), full …
# Experiment: scFv phage: ELISA on His-tag FcRL5, flow cytometry on FcRL5-overexpressing 3T3 and Raji cells
row,Binder,binding result
1,B1,binds
2,B2,binds
3,B3,binds
4,B4,binds
5,B5,binds
6,B6,binds
7,B7,binds
8,B8,binds
9,B9,binds
10,B10,binds
11,B11,binds
12,B12,binds
13,B13,binds
14,B14,binds
15,B15,binds
16,B16,binds
